# Source: patent US20100040602A1 (RIBOVAX BIOTECHNOLOGIES, published 2010)
# B1: 26A1 antibody (natural human IgG1 secreted by the 26A1 subculture, tested as cell culture supernatant) (antibody, V domains shown)
# VH: QVQLQESGPGLVKPSQTLSLICTVSGGSVSSGGDYWTWIRQHPGKGLEWLGYIHSSGNIFYNPSLKSRLTLSMDTSKNQFFLKLTSVTAADTAVYYCARVYHKDFVVVPGAFPFEFWFDPWGQGTLVTVSS
# VL: SYVLTQPPSVSVAPGQTARIPCGGNEIGSKSVHWYQQKPGQAPVLVVHDDSDRPSGIPDRFSGSNSGNTATLTISRVEAGDEADYYCQVWDSGSDHHVVFGGGTKLTVLG
# notes: It is a human IgG1; also called 26A1 IgG; IgG1 produced by 26A1 culture
# Tests used:
# [1] = molecular target: T1, CG3 antigen (recombinant interstrain fusion of gB Antigenic Domain 2 from hCMV strains AD169 and Towne) (human cytomegalovirus strain AD169; …); experiment: ELISA, CG3 antigen (gB AD2), cell culture supernatant
# T1 construct: Commercial antigen (Biotest AG, cod. 807035); also called gB (AD2) antigen
# T1 chain: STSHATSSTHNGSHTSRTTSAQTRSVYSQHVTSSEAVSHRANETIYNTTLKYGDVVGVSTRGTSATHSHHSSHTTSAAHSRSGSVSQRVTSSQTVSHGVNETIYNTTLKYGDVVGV
# [2] = molecular target: T2, gH(Ag)-GST fusion protein (gH amino terminal region, amino acids 16-144, hCMV strain VR1814, fused in frame … (human cytomegalovirus strain VR1814, UniProt P12824 16-144)); experiment: ELISA, plate-coated gH(Ag)-GST, cell culture supernatant, anti-human IgG-HRP
# T2 construct: also called gH antigen; not shown: Glutathione-S-Transferase (GST)
# T2 chain: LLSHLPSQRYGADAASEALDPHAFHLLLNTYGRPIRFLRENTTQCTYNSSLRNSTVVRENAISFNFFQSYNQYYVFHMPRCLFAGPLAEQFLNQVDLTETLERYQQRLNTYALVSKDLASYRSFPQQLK
binder,measurement,setting,value
B1,binding result,[1],no binding
same,binding result,[2],no binding
